Data taken from patent US20180273587A1 (AILERON THERAPEUTICS, published 2018).
Positions of bridges follow the written chain, without caps; N, C: chain ends. Non-standard residues stand in square brackets, D forms with d. Gly(1-adamantyl) = N[C@H](C(=O)O)C12CC3CC(CC(C3)C1)C2; Phe(4-tBu) = CC(C)(C)c1ccc(C[C@H](N)C(=O)O)cc1; Igl = N[C@H](C(=O)O)C1Cc2ccccc2C1; R8 = C=CCCCCCC[C@@](C)(N)C(=O)O; Cha = N[C@@H](CC1CCCCC1)C(=O)O; S5 = C=CCCC[C@](C)(N)C(=O)O

What was measured:
BCL-XL = BCL-XL (UniProt Q07817 1-209); assay: Ki table, method not stated
BCL-XL, sequence (Q07817 1-209): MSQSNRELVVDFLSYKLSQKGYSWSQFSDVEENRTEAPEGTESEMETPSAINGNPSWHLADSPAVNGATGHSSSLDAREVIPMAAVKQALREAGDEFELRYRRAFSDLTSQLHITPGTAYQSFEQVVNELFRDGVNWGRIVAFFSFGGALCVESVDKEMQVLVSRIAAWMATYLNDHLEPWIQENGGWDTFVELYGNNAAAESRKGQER

MCL-1 = biological target: T1, MCL-1 (UniProt Q07820 172-327, limits assumed); assay: Ki table, method not stated
T1 construct: also called Myeloid cell leukemia 1
T1 sequence (Q07820 172-327 limits assumed): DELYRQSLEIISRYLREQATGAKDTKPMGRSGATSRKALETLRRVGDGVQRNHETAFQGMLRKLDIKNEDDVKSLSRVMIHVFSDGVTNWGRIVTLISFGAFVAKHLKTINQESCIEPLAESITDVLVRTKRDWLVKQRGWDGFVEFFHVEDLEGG

Row | Binder | Ki (BCL-XL) | Ki (MCL-1)
1 | Ac-IW[Phe(4-tBu)]AQALR[R8]IGDAFN[S5]YYA-NH2 (staple 9-16; SMILES CC[C@H](C)[C@H](NC(C)=O)C(=O)N[C@@H](Cc1c[nH]c2ccccc12)C(=O)N[C@@H](Cc1ccc(C(C)(C)C)cc1)C(=O)N[C@@H](C)C(=O)N[C@@H](CCC(N)=O)C(=O)N[C@@H](C)C(=O)N[C@@H](CC(C)C)C(=O)N[C@@H](CCCNC(=N)N)C(=O)N[C@]1(C)CCCCCCC=CCCC[C@@](C)(C(=O)N[C@@H](Cc2ccc(O)cc2)C(=O)N[C@@H](Cc2ccc(O)cc2)C(=O)N[C@@H](C)C(N)=O)NC(=O)[C@H](CC(N)=O)NC(=O)[C@H](Cc2ccccc2)NC(=O)[C@H](C)NC(=O)[C@H](CC(=O)O)NC(=O)CNC(=O)[C@H]([C@@H](C)CC)NC1=O, also called Ac-IWF4tBuAQALR$r8IGDAFN$YYA-NH2) [SEQ ID NO: 1684] | 16.9 nM | 151 nM
2 | Ac-IWIAQA[Cha]R[R8]IGDAFN[S5]YYA-NH2 (staple 9-16; SMILES CC[C@H](C)[C@H](NC(C)=O)C(=O)N[C@@H](Cc1c[nH]c2ccccc12)C(=O)N[C@H](C(=O)N[C@@H](C)C(=O)N[C@@H](CCC(N)=O)C(=O)N[C@@H](C)C(=O)N[C@@H](CC1CCCCC1)C(=O)N[C@@H](CCCNC(=N)N)C(=O)N[C@]1(C)CCCCCCC=CCCC[C@@](C)(C(=O)N[C@@H](Cc2ccc(O)cc2)C(=O)N[C@@H](Cc2ccc(O)cc2)C(=O)N[C@@H](C)C(N)=O)NC(=O)[C@H](CC(N)=O)NC(=O)[C@H](Cc2ccccc2)NC(=O)[C@H](C)NC(=O)[C@H](CC(=O)O)NC(=O)CNC(=O)[C@H]([C@@H](C)CC)NC1=O)[C@@H](C)CC, also called Ac-IWIAQAChaR$r8IGDAFN$YYA-NH2) [SEQ ID NO: 1687] | 81.1 nM | 4.2 nM
3 | Ac-IWIAQA[Gly(1-adamantyl)]R[R8]IGDAFN[S5]YYA-NH2 (staple 9-16; SMILES CC[C@H](C)[C@H](NC(C)=O)C(=O)N[C@@H](Cc1c[nH]c2ccccc12)C(=O)N[C@H](C(=O)N[C@@H](C)C(=O)N[C@@H](CCC(N)=O)C(=O)N[C@@H](C)C(=O)N[C@H](C(=O)N[C@@H](CCCNC(=N)N)C(=O)N[C@]1(C)CCCCCCC=CCCC[C@@](C)(C(=O)N[C@@H](Cc2ccc(O)cc2)C(=O)N[C@@H](Cc2ccc(O)cc2)C(=O)N[C@@H](C)C(N)=O)NC(=O)[C@H](CC(N)=O)NC(=O)[C@H](Cc2ccccc2)NC(=O)[C@H](C)NC(=O)[C@H](CC(=O)O)NC(=O)CNC(=O)[C@H]([C@@H](C)CC)NC1=O)C12CC3CC(CC(C3)C1)C2)[C@@H](C)CC, also called Ac-IWIAQAAdmR$r8IGDAFN$YYA-NH2) [SEQ ID NO: 1689] | 110 nM | 40.2 nM
4 | Ac-IWIAQA[Igl]R[R8]IGDAFN[S5]YYA-NH2 (staple 9-16; SMILES CC[C@H](C)[C@H](NC(C)=O)C(=O)N[C@@H](Cc1c[nH]c2ccccc12)C(=O)N[C@H](C(=O)N[C@@H](C)C(=O)N[C@@H](CCC(N)=O)C(=O)N[C@@H](C)C(=O)N[C@H](C(=O)N[C@@H](CCCNC(=N)N)C(=O)N[C@]1(C)CCCCCCC=CCCC[C@@](C)(C(=O)N[C@@H](Cc2ccc(O)cc2)C(=O)N[C@@H](Cc2ccc(O)cc2)C(=O)N[C@@H](C)C(N)=O)NC(=O)[C@H](CC(N)=O)NC(=O)[C@H](Cc2ccccc2)NC(=O)[C@H](C)NC(=O)[C@H](CC(=O)O)NC(=O)CNC(=O)[C@H]([C@@H](C)CC)NC1=O)C1Cc2ccccc2C1)[C@@H](C)CC, also called Ac-IWIAQAIglR$r8IGDAFN$YYA-NH2) [SEQ ID NO: 1693] | 147 nM | 47.7 nM
